assay: yeast display, Sf9 membrane polyspecificity reagent, FACS + sequencing; frameworks hold sequencing errors
How it was run: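 Nanobodies came from a synthetic yeast display library in Saccharomyces cerevisiae BJ5465, induced with galactose for 36–48 hours and stained for 1 hour at 4 °C with 10% biotinylated, detergent-solubilized Sf9 membrane reagent. Cells were enriched on streptavidin microbeads and then FACS-sorted, with low and high (top ~1%) gates set on anti-HA fluorescence for expression and streptavidin fluorescence for reagent binding. Each polyreactivity label reflects the gate a clone came from. Genes were amplified by colony PCR, sequenced by MiSeq 2 × 250 and filtered by CDR length.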

| Sequence | polyreactivity (PSR sort gate) |
| --- | --- |
| QVQLVESGGGLVQAGGSLRLSCAASGRTFGGNSMGWYRQAPAKERELVAAISRGGSTKYADSVKGRFTISRDNAKNTVYLQMNSLKPEDTAVYYCAASPKFHYDYWGQGTQVTVSS | low polyreactivity |
| QVQLVESGGGLVQAGGSLRLSCAASGRTFGGYAMGWYRQAPGKERELVAAIRSRGGRTYYADSVKGRFTISRDNAKNTVYLQMNSLKPEDTAVYYCATYGNKWGEDYWGQGTQVTVSS | high polyreactivity |
| QVQLVESGGGLVQAGGSLRLSCAASGRTFGGYAMGWYRQAPGKETQLVATITSGGSTYYADSVKGRFTISRDNAKNTVYLQMTSLKPEDTAVYYCAADTYFETSTRAIPSNDYWGQGTQVTVSS | low polyreactivity |
| QVQLVESGGGLVQAGGSLRLSCAASGRTFGGYDMGWYRQAPGKERELVAAISSGGRTYYADSVKGRFTISRDNAKNSVYLQMNSLKPEDTAVYYCAAKYRKWPIDYWGQGTQVTVSS | high polyreactivity |
| QVQLVESGGGLVQAGGSLRLSCAASGRTFGGYTMGWYRQATGKEMELVAAITGSGSNTYYADSVKGRFTISRDNAKNTVYLQMNSLKPEDTAVYYCAAPYSYRTWYPYGYWGQGTQVTVSS | high polyreactivity |
| QVQLVESGGGLVQAGGSLRLSCAASGRTFGGYVMGWYRQAPGKERELVATITYSGGSTHYADSVKGRFTISRDNAKNTVYLQINSLKPEDTAVYYCARRRSYRYPSEYNYWGQGTQVTVSS | high polyreactivity |
| QVQLVESGGGLVQAGGSLRLSCAASGRTFGINAMGWYRQAPGKDRELVAAIRTGGSTYYADSVKGRFTISRDNAMNTVYLQMNSLKPEDTAVYYCAAKAYRRYTIPPYGYWGQGTQVTVSS | high polyreactivity |
| QVQLVESGGGLVQAGGSLRLSCAASGRTFGINAMGWYRQAPGKERELVAVISFADGGTYYADSVKGRFTISRDNAKNTVYLQMNSLKPEDTAVYYCATDYQSTSVWGGHFVINPYDYWGLGTQVTVSS | low polyreactivity |
| QVQLVESGGGLVQAGGSLRLSCAASGRTFGINAMGWYRQAPGKETELVAVISFGDGGTYYADSVKGRFTISRDNAKNTVYLQMNSLTPEDTAVYYCATDYQSTSVWGGHFVINPYDYWGQGTQVTVSS | low polyreactivity |
| QVQLVESGGGLVQAGGSLRLSCAASGRTFGIYAMGWYRQAPGKERELVAAISRGGNTYADSVKGRFTISRDNAKNSVYLQMNSLKPEDTAVYYCAADRRYRPGDYWGQGTQVTVSS | high polyreactivity |
| QVQLVESGGGLVQAGGSLRLSCAASGRTFGIYAMGWYRQAPGKERELVASISWSGGRTYYADSVKGRFTISRDNAKNTVYLQMNSLKPEDTAVYYCAAYGVYYPRSWQYFDWYGYWGQGTQVTVSS | high polyreactivity |
| QVQLVESGGGLVQAGGSLRLSCAASGRTFGKNAMGWYRQAPGKERELVAAISGSGGSTYYADSVKGRFTISRDNAKNTVSLQMNSLKPEDTADYYCAKSYYGKYYPSDYWGQGTQVTVSS | low polyreactivity |
| QVQLVESGGGLVQAGGSLRLSCAASGRTFGKYAMGWYRQAPGKERELVAAITTRVVITYYADSVKGRFTISRDTAKNTVYLQMNSLKPEDTAVYYCAADPEKIYRPFNHYYYWGQGTQVTVSS | low polyreactivity |
| QVQLVESGGGLVQAGGSLRLSCAASGRTFGKYAMGWYRQAPRKEREFFAAISRSGGNTYYADTVKGRFTISRDNAKNTVYLQMTSLIPEDTAVYYCARGLSTYVLSHGLEYRTYFYWGQGTQVTVSS | high polyreactivity |
| QVQLVESGGGLVQAGGSLRLSCAASGRTFGKYAMGWYSQAPGKERELVAAISSGGTTYYADSVKGRFTISRDNAKNTVYLQMNSVIPEDTAVYYCAADPRYPYNYWGQGTQVTVSS | low polyreactivity |
| QVQLVESGGGLVQAGGSLRLSCAASGRTFGLNAMGWYRQAPGKERELVAAITYSGGSTYYADSVKGRFTISRDNAKNTVYLQMNSLKPEDTAVYYCAKEVQTYWYHYYYWGQGTQVTVSS | high polyreactivity |
| QVQLVESGGGLVQAGGSLRLSCAASGRTFGLNAMGWYRQAPGKERELVAVITSSGGSTYYADSVKGRFTISRDNAKNTVYLQMNSLKPEDTAVYYCAARPPYTDSSPGERTYDYWGQGTQVTVSS | low polyreactivity |
| QVQLVESGGGLVQAGGSLRLSCAASGRTFGLNVMGWYRQAPGKERELVATISGVGSTNYADSVKGRFTISRDNAKNTVYLQMNSLKPEDTAVYYCDKDPHVGRWWDLYSPYYSWGQGTQVTVSS | low polyreactivity |
| QVQLVESGGGLVQAGGSLRLSCAASGRTFGLNVMGWYRQAPGKERELVATISWSGGTTYYADSVKGRFTISRDYAKNTVYLQMNSLKPEDTAVYYCNRQVTWYPTGGFWGQGTQVTVSS | low polyreactivity |
| QVQLVESGGGLVQAGGSLRLSCAASGRTFGLYAMGWYRQAPGKERELVAAISSGDSTNYADSVKGRFTISRDNAKNTVYLQMNSLKPEDTAVYYCAAAQQRWWQWYYYWGQGTQVTVSS | high polyreactivity |
| QVQLVESGGGLVQAGGSLRLSCAASGRTFGLYAMGWYRQAPGKERELVAAISYSGGRTYYADSVKGRFTISRDNAKKTVYLQMNILKPEDTAVYYCNKAWFRYYYYRFDYWGLGTQVTVSS | high polyreactivity |
| QVQLVESGGGLVQAGGSLRLSCAASGRTFGPNVMGWYRQAPGKERELVAAITYSSASTYYADSVKGRFTISRDNAKNTVYLQMNSLKPEDTAVYYCAARDRYYFGGMYYWGQGTQVTVSS | low polyreactivity |

| Sequence | polyreactivity (PSR sort gate) |
| --- | --- |
| QVQLVESGGGLVQAGGSLRLSCAASGRTFGPYAMGWSRQAPGKEREFVAAISYSGGSTYYADSVKGRFTISRDNAKNTVYFQITSLKPEDTAVYYCAVDIDSNSGTRDYWGQGTQVTVSS | low polyreactivity |
| QVQLVESGGGLVQAGGSLRLSCAASGRTFGPYAMGWYRQAPGKERELVAAIRYIDDSTFYADSVKGRFTISRDNAKNTVYLQMNSLKPEDTAVYYCAAQRRVVGRHGLSLIRYDYWGQGTQVTVSS | low polyreactivity |
| QVQLVESGGGLVQAGGSLRLSCAASGRTFGPYAMGWYRQAPGKERELVAAITDTGSGTYYADSVKGRFTISRDNAKNTVYIQMNSLKPEDTAVFYCNANYLSWYRYKYNYWGQGTQVTVSS | low polyreactivity |
| QVQLVESGGGLVQAGGSLRLSCAASGRTFGQNAMGWYRQAPGKERELVAAISASGSNTYYADSVKGRFTISRDNAKNTVYVQMNSLKPEDTAVYYCAKQVYRPGQQSRYDYWGQGTQVTVSS | low polyreactivity |
| QVQLVESGGGLVQAGGSLRLSCAASGRTFGQYALGGSRKAPGKERELVATITRTARTNYADSVKGRFTISRDNAKNTVYLQMNSLKPEDTAVYYCAKGWPAIYGTYDYCGQGTQVTVSS | high polyreactivity |
| QVQLVESGGGLVQAGGSLRLSCAASGRTFGRNAMGWYRQAPGERELVAVISRGGSTYYADSVKGRFTISRDNAKNTVYLQMNSLKPEDTAVYYCNADTVYTRNATYDYWGQCTQVTVSS | low polyreactivity |
| QVQLVESGGGLVQAGGSLRLSCAASGRTFGRNAMGWYRQAPGKERELVAAINGNGGRTSYADSVKGRFTISRDNAKNTVYLPMNSLKPEDTAVYYCNKYTPGWYRYYYWGQGTQVTVSS | high polyreactivity |
| QVQLVESGGGLVQAGGSLRLSCAASGRTFGRNAMGWYRQAPGKERELVAAISSSGASTYYADSVKGRFTISRDNAKNTVYLQMNSLKPEDTAVYYCAKDVWGSRYAYDYWGQGTQVTVSS | low polyreactivity |
| QVQLVESGGGLVQAGGSLRLSCAASGRTFGRNTMGWYRQAPGKERELVAAIDWSGGSTYYADSVKGRFTISRDNAKNTVYLQMNSLKPEDTAVYYCAAKTRWNFYYWGQGTQVTVSS | high polyreactivity |
| QVQLVESGGGLVQAGGSLRLSCAASGRTFGRYAMGWYRQAPGKERELVAAINSGSASTYYADSVKGRFTISRDNAKNTVYLQMNSLKPEDTAVYYCAVYGYWSKSDYWGQGTQVTVSS | high polyreactivity |
| QVQLVESGGGLVQAGGSLRLSCAASGRTFGRYTMGWYRQAPGKERELVATIRFNGGSTYYADSVKGRFTISRDNAKNTVYLQMNSLKPEDTAVYYCASYRGAYWGQGTQVTVSS | high polyreactivity |
| QVQLVESGGGLVQAGGSLRLSCAASGRTFGRYVMGWYRQAPGKERELVAAIDGSGGSTYYADSVKGRFTISRDNAKNTVYLQMNSLKPEDTAVYYCNADVGFVGGDYWGQGTQVTVSS | high polyreactivity |
| QVQLVESGGGLVQAGGSLRLSCAASGRTFGSYAMGWYRQAPGKEREFVASISRRGGSTYYADSVKVRFTISRDNAKNTVYLQINSLKPEDTAVYYCAAGVPASWFDYWGQGTQVTVSS | high polyreactivity |
| QVQLVESGGGLVQAGGSLRLSCAASGRTFGSYAMGWYRQAPGKERELVAAISSSGGRTYYADSVKGRFTISRDNAKTTVYLQMNSLKPEDTAVYSCNARWRFLYDYWGQGTQVTVSS | high polyreactivity |
| QVQLVESGGGLVQAGGSLRLSCAASGRTFGSYAMGWYRQAPGKERELVAAITASGVRTYYADSVKGRFTISRDNAKNTVYLQMNSLKPEDTAVYYCNARRLSTVQYDYWGQGTQVTVSS | high polyreactivity |
| QVQLVESGGGLVQAGGSLRLSCAASGRTFGSYAMGWYRQAPGKERELVAAITTDASTNYADSVKGRFTISRDNAKNTVYLQMNSLKPEDTAVYYCAKRKRTNYGFWGQGTQVTVSS | low polyreactivity |
| QVQLVESGGGLVQAGGSLRLSCAASGRTFGSYGMGWYRQAPGKERELVAAISRSVGSTYYADSVKGRFTISRDNAKITVYLQMNSLKPEDTAVYYCNTVDRRRYAGHYYWGQGTQVTVSS | high polyreactivity |
| QVQLVESGGGLVQAGGSLRLSCAASGRTFGSYVMGWYRQAPGKERELVAAISSRGTRTYYADSVKGRFTISRDNAKNTVYLQMNSLKPEDTAVYYCAAEWPYRFQYGEMDYWGQGTQVTVSS | high polyreactivity |
| QVQLVESGGGLVQAGGSLRLSCAASGRTFGTYAMGWYRQAPGKDRELVAAISRRGGTTYYADSVKGRFTISRDNAKNTVYLQMNSLKPEDTAVYYCARASWSITTVLSTMDYWGQGTQVTVSS | high polyreactivity |
| QVQLVESGGGLVQAGGSLRLSCAASGRTFGVNAMGWYRQAPGKEREFVAAISRSTGSTYYADSVKGRFTISRDNAKNTVYLQMNSLKPEDTAVYYCAVKGASYPAYRGYDYWGQGTQVTVSS | high polyreactivity |
| QVQLVESGGGLVQAGGSLRLSCAASGRTFGVNAMGWYRQAPGKERELVARIRVSGGRTYYADSVKGLFTISRDNAKNTVYLQMNSLKPEDTAVYYCNAGYTYNRVIWPYYYWGQGTQVTVSS | high polyreactivity |
